Inhibition of human VEGF165-induced proliferation of HMVEC-d (IC50) data for 1 substance are collected here from patent US20150329626A1.

In this test the target is human VEGFR2 on cells (ECFC, HMVEC-d) (human) (UniProt P35968). As to the kind of experiment: cell-based or functional assay.
human VEGFR2 on cells (ECFC, HMVEC-d) (human), sequence (P35968 20-1356): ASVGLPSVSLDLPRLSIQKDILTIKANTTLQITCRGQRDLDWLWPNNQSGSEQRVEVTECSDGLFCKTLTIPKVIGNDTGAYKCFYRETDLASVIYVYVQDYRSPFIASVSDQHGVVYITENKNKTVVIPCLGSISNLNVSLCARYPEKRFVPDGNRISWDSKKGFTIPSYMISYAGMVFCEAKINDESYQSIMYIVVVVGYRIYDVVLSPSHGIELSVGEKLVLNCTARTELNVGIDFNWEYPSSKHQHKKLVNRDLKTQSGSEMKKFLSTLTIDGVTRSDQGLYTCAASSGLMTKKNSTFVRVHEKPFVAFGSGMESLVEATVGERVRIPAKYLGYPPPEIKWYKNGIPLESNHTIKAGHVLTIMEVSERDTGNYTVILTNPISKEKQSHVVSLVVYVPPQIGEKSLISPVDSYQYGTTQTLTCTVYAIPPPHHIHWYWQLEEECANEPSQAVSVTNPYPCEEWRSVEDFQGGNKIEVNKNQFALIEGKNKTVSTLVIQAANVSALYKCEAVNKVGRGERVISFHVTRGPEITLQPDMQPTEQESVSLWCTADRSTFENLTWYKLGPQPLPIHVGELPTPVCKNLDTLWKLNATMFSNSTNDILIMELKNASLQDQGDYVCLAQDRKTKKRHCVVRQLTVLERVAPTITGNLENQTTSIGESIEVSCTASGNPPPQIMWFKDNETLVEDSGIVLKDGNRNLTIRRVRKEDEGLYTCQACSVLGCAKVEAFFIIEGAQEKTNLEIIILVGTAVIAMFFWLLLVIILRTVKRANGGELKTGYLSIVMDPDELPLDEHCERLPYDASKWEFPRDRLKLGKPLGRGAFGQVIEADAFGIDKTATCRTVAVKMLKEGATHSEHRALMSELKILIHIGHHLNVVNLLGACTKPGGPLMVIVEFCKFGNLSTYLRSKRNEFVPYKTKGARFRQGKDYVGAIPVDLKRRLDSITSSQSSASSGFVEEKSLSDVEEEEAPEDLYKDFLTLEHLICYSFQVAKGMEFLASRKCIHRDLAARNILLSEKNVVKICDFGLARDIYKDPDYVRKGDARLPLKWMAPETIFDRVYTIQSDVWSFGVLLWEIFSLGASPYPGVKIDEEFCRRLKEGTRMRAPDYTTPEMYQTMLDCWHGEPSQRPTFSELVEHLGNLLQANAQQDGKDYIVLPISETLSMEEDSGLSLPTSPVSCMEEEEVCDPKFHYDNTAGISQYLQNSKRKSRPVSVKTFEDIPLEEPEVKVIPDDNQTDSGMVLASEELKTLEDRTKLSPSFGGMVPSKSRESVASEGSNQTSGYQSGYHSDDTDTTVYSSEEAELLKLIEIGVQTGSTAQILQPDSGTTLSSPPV

With IMC-1121B (antibody), the inhibition of human VEGF165-induced proliferation of HMVEC-d (IC50) worked out at 31.4 nM.
